{
  "source": "paper PMC10350561",
  "about": "(MicrobiologyOpen, 2023)",
  "target": "staphylococcal superantigen-like protein 1 (Staphylococcus aureus, strain of the …, UniProt A0A0H3KAV3)",
  "sequence (A0A0H3KAV3 31-226)": "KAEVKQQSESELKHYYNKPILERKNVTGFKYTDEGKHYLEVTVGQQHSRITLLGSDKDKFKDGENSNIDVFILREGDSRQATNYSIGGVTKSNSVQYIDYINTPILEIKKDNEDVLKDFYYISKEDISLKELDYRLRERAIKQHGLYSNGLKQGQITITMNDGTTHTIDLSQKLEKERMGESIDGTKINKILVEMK",
  "assay": "ELISA",
  "settings": "one partner purified",
  "data": [
    {"binder": "scFv-99 (scFv-ALP fusion) (scFv, V domains shown) VH: EVQLLESGGGLVQPGGSLRLSCAASGFTFSNYSMHWVRQAPGKGLEWVSVIDYNSGYTDYADSVKGRFTISRDNSKNTLYLQMNSLRAEDTAVYYCARGIFDYWGQGTLVTVSS VL: EIVLTQSPGTLSLSPGERATLSCRASQSVSSSALAWYQQKPGQAPRLLIYGASSRATGVPDRFSGSGSGTDFTLTISRLEPEDFAVYYCQQSSSTPWTFGQGTKVEIK", "values": [
      {"measurement": "binding result", "result": "binds"}
    ]}
  ]
}
